In the data set the test system is MS2 coat protein. The data set is described as follows: apparent KD of MS2 coat protein; designed switch direction (-1 OFF switch, 1 ON switch): -1; higher = weaker reporter binding. An outline of the steps:
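The apparent KD reported per design is the median over clusters of curve fits to normalised cluster fluorescence. The RNA switches were transcribed on Illumina chips by stalled E. coli RNA polymerase. SNAP-549-labelled MS2 coat protein was titrated from 0.7 or 1.5 nM, doubling up to 3 µM, in Tris-HCl pH 7.5 buffer containing KCl, MgCl2, BSA, DTT, tRNA and Tween-20, with no input, 200 uM small-molecule ligand, or an oligonucleotide input.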

Setting [1] is: input ligand: microRNA oligo, concentration not stated.
Where [2] appears, read: Eterna round: R95, input ligand: FMN 200 uM.
The mark [3] stands for this setting: Eterna round: R95, input ligand: microRNA oligo, concentration not stated.
Where [4] appears, read: Eterna round: R95, input ligand: none.

Consider “UUGUUCCGUGUAGGAUAUUGGCCUCCCUCGGGCCGAGAAGGACAUGAGGAUCACCCAUGUAUGCUAUUAUCGCGCGUGGCGCAC [Design 94] (Eterna round: R96, puzzle: Exclusion NG 1)”, for which the “apparent KD of MS2 coat protein” value (input ligand: FMN 200 uM) amounted to 330 nM, the “apparent KD of MS2 coat protein” value under setting [1] turned out to be 23.1 nM and the “apparent KD of MS2 coat protein” value (input ligand: none) is 25.2 nM.
Consider “UUGUUGUAUGUAGGAUAUGCAUAUUGUUAUUAUGCAGAAGGACAUGAGGAUCACCCAUGUAUAUUAUUAUUAUAUAUUAUAUAU [Title] (Eterna round: R96, puzzle: Exclusion NG 1)”, for which, under setting [1], the “apparent KD of MS2 coat protein” value was determined as 20.9 nM.
In the case of “UUUAAAACAUAGGAUAUCGAAUAAAUCAUUUAACGAGAAGGAUGAACAUGAGGAUCACCCAUGUGGUAUCAUGG [Mat - Exclusion 6 - JL Mod - D20] (puzzle: Exclusion 6)”, the “apparent KD of MS2 coat protein” value stood at 219 nM under setting [2], 183 nM under setting [3] and 207 nM under setting [4].
In the case of “UUUAAGUCAGGAUAUCGUUAAUUUAAUAAAUUAAUUUAAUUCGAGAAGGGACAUGAGGAUCACCCAUGUAAUUU [Ex4 #2] (Eterna round: R97, puzzle: Exclusion 4)”, the “apparent KD of MS2 coat protein” value runs as follows: (input ligand: FMN 200 uM) 33.5 nM; (input ligand: none) 28 nM.
Turning to “UUUAAUGGAAUUAAGAUCACAUGAGGAUCACCCAUGUAUAUAUAGGAUAUCAGCUCGUGUAGAGCUGAGAAGGAUAUAUACAUA [ExNG3/6-B3] (Eterna round: R96, puzzle: Exclusion NG 3)”, the “apparent KD of MS2 coat protein” value by setting is: (input ligand: FMN 200 uM) 208 nM; under setting [1], 344 nM; (input ligand: none) 185 nM.
For “UUUAAUUGUGACAUGGGUGACAUGAGGAUCACCCAUGUCACAAGCUUUUUGUUCGUCUUAUAAUUAACCCAUGUCAC [Stov1/13-B1] (Eterna round: R97, puzzle: Sensor, turn-off variant 1)”, the “apparent KD of MS2 coat protein” value runs as follows: (input ligand: FMN 200 uM) 37.8 nM; (input ligand: none) 123 nM.
As to “UUUAAUUUAAUUAAGAUCACAUGAGGAUCACCCAUGUAUAUAUAGGAUAUCAGCUCGUUUAGAGCUGAGAAGGAUAUAUACAUA [ExNG3/4-A2] (Eterna round: R96, puzzle: Exclusion NG 3)”, the “apparent KD of MS2 coat protein” value runs as follows: (input ligand: FMN 200 uM) 433 nM; under setting [1], 40.1 nM; (input ligand: none) 58.2 nM.
Regarding “UUUAAUUUUUUUUUUUUACAAGCUUUUUGCUCGUCUUAUACAUGAGGAUCACCCAUGUAAGUGGGAGGUAAAUUAUC [JMF 76] (puzzle: Sensor v3, turn-off variant 2)”, the “apparent KD of MS2 coat protein” value under setting [2] is 54.3 nM, the “apparent KD of MS2 coat protein” value under setting [3] was determined as 201 nM and the “apparent KD of MS2 coat protein” value under setting [4] amounted to 102 nM.
Regarding “UUUAAUUUUUUUUUUUUACAAGCUUUUUGCUCGUCUUAUACAUGAGGAUCACCCAUGUAGGUGAAGGGUAAAUUAUC [JMF 81] (puzzle: Sensor v3, turn-off variant 2)”, the “apparent KD of MS2 coat protein” value by setting is: under setting [2], 17.9 nM; under setting [3], 77.7 nM; under setting [4], 15.8 nM.
On the same counts, the results for “UUUAAUUUUUUUUUUUUACAAGCUUUUUGCUCGUCUUAUACAUGAGGAUCACCCAUGUGAAUGGGAAGUAAAUUAUC [JMF 51] (puzzle: Sensor v3, turn-off variant 2)” are 103 nM, 183 nM and 148 nM.
Taken in the same sequence, the figures for “UUUAAUUUUUUUUUUUUACAAGCUUUUUGCUCGUCUUAUACAUGAGGAUCACCCAUGUGGGUAGAAAAUAAAUUAUC [JMF 91] (puzzle: Sensor v3, turn-off variant 2)” were 44.1 nM, 65.2 nM and 48.7 nM.
On the same counts, the results for “UUUAAUUUUUUUUUUUUACAAGCUUUUUGCUCGUCUUAUACAUGAGGAUCACCCAUGUGGGUAGAAGGUAAAUUAUC [JMF 66] (puzzle: Sensor v3, turn-off variant 2)” are 24.3 nM, 64.9 nM and 22.4 nM.
As to “UUUAAUUUUUUUUUUUUACAAGCUUUUUGCUCGUCUUAUACAUGAGGAUCACCCAUGUGGGUGAAAGAUAAAUUAUC [JMF 5] (puzzle: Sensor v3, turn-off variant 2)”, the “apparent KD of MS2 coat protein” value was found to be 54.9 nM under setting [2], 19.2 nM under setting [3] and 37.6 nM under setting [4].
As for “UUUAGUUCAGGAUAUGAUGAAUUAUACAUGAGGAUCACCCAUGUAGAUCCUGAAUUAACAUCAGAAGGGAACAUUU [JL-ex5-4.46 Brourd mod] (Eterna round: R97, puzzle: Exclusion 5)”, the “apparent KD of MS2 coat protein” value is 23 nM (input ligand: FMN 200 uM) and 16.4 nM (input ligand: none).
Regarding “UUUAUAUAGUAAGGAUAUGUAUUAUUUUUUUCAACAGAAGGUACUGACAUGAGGAUCACCCAUGUUUUAGUGUGGGCAUGUAGU [JMF's solution 98] (Eterna round: R96, puzzle: Exclusion NG 1)”, the “apparent KD of MS2 coat protein” value under setting [1] is 323 nM.
For the sequence “UUUCCGGCGCGGGUUUUUUACAUGAGGAUCACCCAUGUCCUCUGCUUGUCUUGUCUUGGGCUUUUUUUGGGUUCGGG [-19, -39.7 kcal, A 8%] (Eterna round: R97, puzzle: Sensor, turn-off variant 1)”, the “apparent KD of MS2 coat protein” value (input ligand: FMN 200 uM) was determined as 697 nM.
With “UUUGUUGUUGUGAGGAUAUCGUUGAUUUUUUGAAACGAGAAGGCACAUGAGGAUCACCCAUGUUUGUUGUUGGU [JR_BMOE4_Sub058] (puzzle: Brourd's mod of Exclusion 4)”, under setting [3], the “apparent KD of MS2 coat protein” value is 58.8 nM.
Consider “UUUGUUUAUGUAGGAUAUGCCUGGCGUGCCUUUGCAGAAGGACAUGAGGAUCACCCAUGUAUUGCGGUCUGCGUUCAGAUCGCA [salish99_ExNG1_r4_038] (Eterna round: R96, puzzle: Exclusion NG 1)”, for which the “apparent KD of MS2 coat protein” value turned out to be 43.2 nM (input ligand: FMN 200 uM), 30.2 nM under setting [1] and 29.4 nM (input ligand: none).
Turning to “UUUUAACAUGAGGAUCACCCAUGUGAGGAUAUCGAAAUUUAUAUUAAUAUUAAUAUAUCGAGAAGGCACAUUUU [JMF 24] (puzzle: Exclusion 1)”, under setting [3], the “apparent KD of MS2 coat protein” value was determined as 74.9 nM.
With “UUUUAACAUGAGGAUCACCCAUGUGAGGAUAUCGAAAUUUAUAUUAAUAUUUUUAUUUCGAGAAGGCACAUUUU [JMF 73] (puzzle: Exclusion 1)”, under setting [3], the “apparent KD of MS2 coat protein” value stood at 138 nM.
Consider “UUUUAACAUGAGGAUCACCCAUGUGAGGAUAUCGUAAUUUAUAUUAAUAUUAAUAAAACGAGAAGGCACAUUUU [JMF 5] (puzzle: Exclusion 1)”, for which the “apparent KD of MS2 coat protein” value under setting [2] was 138 nM, the “apparent KD of MS2 coat protein” value under setting [3] worked out at 143 nM and the “apparent KD of MS2 coat protein” value under setting [4] is 85.2 nM.
Take “UUUUACAUAGGAUAUAGUCUUUUUUACAUGAGGAUCACCCAUGUCUCUCUUUUUUUUUUUCUAGAAGGAUGUUUUU [JR_E5_Sub017] (puzzle: Exclusion 5)”: the “apparent KD of MS2 coat protein” value under setting [3] amounted to 16.8 nM.
For the sequence “UUUUAGAGAGGAUAUAUAUUGUGAAACAUGAGGAUCACCCAUGUAAUAAUAUGGAUGAAAAUAGAAGGCUCAUUUA [Mat - Exclusion 5 - JL mod - D7] (puzzle: Exclusion 5)”, the “apparent KD of MS2 coat protein” value reads like this: under setting [2], 52.1 nM; under setting [3], 62.7 nM; under setting [4], 73.6 nM.
“UUUUAGAGAGGAUAUAUGAUGUGAAACAUGAGGAUCACCCAUGUAAUAUUAUGGAUGUAAAUAGAAGGCUCAUUUA [JL-ex5-3.05] (puzzle: Exclusion 5)”: the “apparent KD of MS2 coat protein” value runs as follows: under setting [2], 38.8 nM; under setting [3], 63.3 nM; under setting [4], 69.1 nM.
Regarding “UUUUAGUCAGGAUAUACAUGAGGAUCACCCAUGUAAACUUUUAGUUUAAUUUGAAUGUGUAGAAGGGACAUUUU [Ex3 #44] (Eterna round: R97, puzzle: Exclusion 3)”, the “apparent KD of MS2 coat protein” value (input ligand: FMN 200 uM) is 34.3 nM and the “apparent KD of MS2 coat protein” value (input ligand: none) was 25.4 nM.
In the case of “UUUUAUAGAGGAUAUGCGUGAAUAUAUAUUCAUGGAAAUUUACAUGAGGAUCACCCAUGUAGAAGGCUGUGUUU [LRO-Excl2-19-mod 090 by JR] (Eterna round: R97, puzzle: Exclusion 2)”, the “apparent KD of MS2 coat protein” value came out at 14.1 nM (input ligand: FMN 200 uM) and 14.5 nM (input ligand: none).
“UUUUCCUGGCAAGGAUAUCCUGUGCGGUUCCGGCUCGUGUCUGUUACAUGAGGAUCACCCAUGUGGGAGAAGGUGCCUGUGGUU [Design 89] (Eterna round: R96, puzzle: Exclusion NG 2)”: the “apparent KD of MS2 coat protein” value by setting is: (input ligand: FMN 200 uM) 272 nM; under setting [1], 34.3 nM; (input ligand: none) 41.7 nM.
As to “UUUUGAUGAGGAUAUCGAGGUUAGUACAUGAGGAUCACCCAUGUUAUCCAGGUGUCGGUUCGAGAAGGUAUUGGAC [LRO-Ex5-16] (puzzle: Exclusion 5)”, under setting [3], the “apparent KD of MS2 coat protein” value came to 16 nM.
Consider “UUUUGGCAUGUAGGAUAUGGGUCCGAUUAGGAUUUAGAAGGACAUGAGGAUCACCCAUGUGCAUUUAAUUGGUCUUUACCUUUU [EXclNG1-LROPPY12] (Eterna round: R96, puzzle: Exclusion NG 1)”, for which the “apparent KD of MS2 coat protein” value runs as follows: (input ligand: FMN 200 uM) 130 nM; under setting [1], 82.1 nM; (input ligand: none) 82.5 nM.
Taken in the same sequence, the figures for “UUUUGGCAUGUAGGAUAUGGGUCCGAUUAGGAUUUAGAAGGACAUGAGGAUCACCCAUGUGCAUUUAAUUGGUCUUUACUUUUU [EXclNG1-LROPPY13] (Eterna round: R96, puzzle: Exclusion NG 1)” were 115 nM, 61.2 nM and 72.9 nM.
“UUUUUACAUGAGGAUCACCCAUGUGAGGAUAUGGAGCGCGACCGCGCGGUCGCGUACACCAGAAGGCGCAGGAU [1st #76] (Eterna round: R97, puzzle: Exclusion 1)”: the “apparent KD of MS2 coat protein” value runs as follows: (input ligand: FMN 200 uM) 89.7 nM; (input ligand: none) 46.6 nM.

Values taken from the supplement of paper PMC9170038.
